{
  "source": "patent US9274110B2",
  "about": "“Diagnosis method of active tuberculosis” (priority 2011, dated 2016)",
  "key": {"[1]": {"test": "Activity of rLipC or cutinase on p-nitrophenyl esters (release of p-NP at 410 nm)", "assay_type": "biochemical", "settings": "for Specific Activity, pNP-butyrate (C4): substrate pNP-butyrate (C4); for Specific Activity, pNP-butyrate (C4) / Specific Activity, pNP-caprate (C10) / Specific Activity, pNP-caprylate (C8) / Specific Activity, pNP-laurate (C12) / Specific Activity, pNP-myristate (C14) / Specific Activity, pNP-valerate (C5): 1 mM, Tris buffer pH 8.0, 300 mM NaCl, 4 mM NaTDC, 15 min; for Specific Activity, pNP-caprate (C10): substrate pNP-caprate (C10); for Specific Activity, pNP-caprylate (C8): substrate pNP-caprylate (C8); for Specific Activity, pNP-laurate (C12): substrate pNP-laurate (C12); for Specific Activity, pNP-myristate (C14): substrate pNP-myristate (C14); for Specific Activity, pNP-valerate (C5): substrate pNP-valerate (C5)"}, "[2]": {"test": "pH-stat, fluorescent and spectrophotometric assays for lipase or phospholipase activity on various lipids", "assay_type": "biochemical", "text": "rLipC activity was also investigated using pH-stat, fluorescent and spectrophotometric assays for various lipids, as well as phospholipids, to detect lipase or phospholipase activity, respectively."}},
  "data": [
    {"molecule": "Cutinase F. solani: cutinase from F. solani, comparison enzyme [reference compound]", "values": [
      {"measurement": "Specific Activity, pNP-butyrate (C4)", "setting": "[1]", "value": "382 ± 22", "unit": "U · mg^−1"},
      {"measurement": "Specific Activity, pNP-caprate (C10)", "setting": "[1]", "value": "9 ± 1", "unit": "U · mg^−1"},
      {"measurement": "Specific Activity, pNP-caprylate (C8)", "setting": "[1]", "value": "14 ± 3", "unit": "U · mg^−1"},
      {"measurement": "Specific Activity, pNP-laurate (C12)", "setting": "[1]", "value": "1 ± 0.4", "unit": "U · mg^−1"},
      {"measurement": "Specific Activity, pNP-myristate (C14)", "setting": "[1]", "value": "1 ± 0.2", "unit": "U · mg^−1"},
      {"measurement": "Specific Activity, pNP-valerate (C5)", "setting": "[1]", "value": "78 ± 0.5", "unit": "U · mg^−1"}
    ]},
    {"molecule": "Rv0220: M. tuberculosis Lip family protein Rv0220 (LipC), recombinant; shown not to be a lipolytic enzyme (protein, UniProt P96402 1-403, looked up) Esterase LipC: MNQRRAAGSTGVAYIRWLLRARPADYMLALSVAGGSLPVVGKHLKPLGGVTAIGVWGARHASDFLSATAKDLLTPGINEVRRRDRASTQEVSVAALRGIVSPDDLAVEWPAPERTPPVCGALRHRRYVHRRRVLYGDDPAQLLDVWRRKDMPTKPAPVLIFVPGGAWVHGSRAIQGYAVLSRLAAQGWVCLSIDYRVAPHHRWPRHILDVKTAIAWARANVDKFGGDRNFIAVAGCSAGGHLSALAGLTANDPQYQAELPEGSDTSVDAVVGIYGRYDWEDRSTPERARFVDFLERVVVQRTIDRHPEVFRDASPIQRVTRNAPPFLVIHGSRDCVIPVEQARSFVERLRAVSRSQVGYLELPGAGHGFDLLDGARTGPTAHAIALFLNQVHRSRAQFAKEVI", "values": [
      {"measurement": "Specific Activity, pNP-butyrate (C4)", "setting": "[1]", "value": "133 × 10^−3 U · mg^−1"},
      {"measurement": "Specific Activity, pNP-caprate (C10)", "setting": "[1]", "value": "2 × 10^−3 U · mg^−1"},
      {"measurement": "Specific Activity, pNP-caprylate (C8)", "setting": "[1]", "value": "22 × 10^−3 U · mg^−1"},
      {"measurement": "Specific Activity, pNP-laurate (C12)", "setting": "[1]", "value": 0, "unit": "U · mg^−1"},
      {"measurement": "Specific Activity, pNP-myristate (C14)", "setting": "[1]", "value": 0, "unit": "U · mg^−1"},
      {"measurement": "Specific Activity, pNP-valerate (C5)", "setting": "[1]", "value": "111 × 10^−3 U · mg^−1"},
      {"measurement": "Hydrolysis of esters function associated with a fatty acyl chain having more than 10 carbons", "setting": "[1]; summary of Table 1", "value": "not able to hydrolyse"},
      {"measurement": "Long-chain triglycerides (TG) hydrolysis", "setting": "[2]; cloned and characterized protein, see example 1", "value": "no long-chain triglycerides (TG) hydrolysis was detected"},
      {"measurement": "Activity on triglycerides, diglycerides or monoglycerides as substrate", "setting": "[2]; pH-stat, fluorescent and spectrophotometric assays, whatever the carbon chain length", "value": "does not show any activity"}
    ]}
  ]
}
